Laboratory results published in patent publication US20210238276A1 (INTEGRAL MOLECULAR, published 2021).
Changes are numbered by the printed parent chain.

How the values were obtained:
Experiment in all cases: flow cytometry, alanine-scan library in HEK-293T, with cytochalasin B
[1] = target: T1, hsGLUT4 P224A (human, UniProt P14672 1-509)
T1 sequence: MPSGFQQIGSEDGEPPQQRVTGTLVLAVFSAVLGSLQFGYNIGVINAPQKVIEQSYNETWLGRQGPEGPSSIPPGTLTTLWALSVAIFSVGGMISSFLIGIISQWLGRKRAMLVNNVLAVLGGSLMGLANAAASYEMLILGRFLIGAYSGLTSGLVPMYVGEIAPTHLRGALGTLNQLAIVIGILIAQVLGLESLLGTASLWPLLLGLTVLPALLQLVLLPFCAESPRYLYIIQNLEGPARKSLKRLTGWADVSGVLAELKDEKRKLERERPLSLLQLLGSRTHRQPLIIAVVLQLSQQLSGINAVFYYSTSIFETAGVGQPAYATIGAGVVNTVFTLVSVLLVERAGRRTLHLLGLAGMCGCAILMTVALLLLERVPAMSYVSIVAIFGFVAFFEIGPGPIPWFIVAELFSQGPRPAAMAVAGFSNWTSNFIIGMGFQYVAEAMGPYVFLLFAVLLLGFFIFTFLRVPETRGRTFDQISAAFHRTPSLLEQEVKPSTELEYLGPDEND
Protocol: (§1) Because of the state-dependence of the isolated MAbs, we next wished to understand the mechanism by which each MAb could recognize GLUT4 in its different conformations. The residues required for binding of each MAb were determined using shotgun mutagenesis comprehensive alanine scanning (Davidson E & Doranz B J (2014) A High-Throughput Shotgun Mutagenesis Approach to Mapping B-cell Antibody Epitopes. Immunology, which is hereby incorporated by reference in its entirety). All residues of hsGLUT4 were individually mutated to alanine, with existing alanines changed to serines. Mutations were obtained for 508 of the 509 residues of GLUT4 (excluding the initiating methionine). The entire mutation library was transfected into human HEK-293T cells in a 384-well array format (one clone per well) and assessed for immunoreactivity using high-throughput flow cytometry.
(§2) HEK-293T cells were transfected by CaPO₄ with plasmids in 6-well culture plates (Falcon) at 750,000 cells/well. At 48 hours post transfection, cells were stained with anti-V5 and anti-GLUT4 MAbs (purified scFv, 2 μg/ml) followed by biotinylated goat anti-mouse or human antibody (1:500) and streptavidin-PerCP (1:500). Fluorescence was detected using an Intellicyt high-throughput flow cytometer (HTFC; Intellicyt, Albuquerque, N. Mex.). For cell permeabilization, cells were treated with saponin at 0.1% in PBS for 20 minutes. To discriminate intact (live) and permeabilized (dead) cells without the use of detergent, propidium iodide (PI) was added to HEK-293T cells at 1 ug/ml just prior to flow cytometry. Where indicated, cytochalasin B (Sigma) was used at a final concentration of 10 uM and phloretin (Sigma) was used at a final concentration of 100 uM, each added in 10% NGS for 30 minutes prior to antibody staining as well as included with the primary antibody.

[2] = target: T2, hsGLUT4 P66A (human, UniProt P14672 1-509)
T2 sequence: T1 sequence with P66A, A224P
Protocol: as §1, §2

[3] = target: T3, hsGLUT4 M158A (human, UniProt P14672 1-509)
T3 sequence: T1 sequence with M158A, A224P
Protocol: as §1, §2

[4] = target: T4, hsGLUT4 I163A (human, UniProt P14672 1-509)
T4 sequence: T1 sequence with I163A, A224P
Protocol: as §1, §2

- % of binding to wild type GLUT4 [1]: 29%
- % of binding to wild type GLUT4 [2]: 97%
- % of binding to wild type GLUT4 [3]: 85%
- % of binding to wild type GLUT4 [4]: 28%
B1: AB102 (Fc fusion)
scFv: ALTQPSSVSANLGGTVKITCSGGGSYGYGWYQQKSPGSAPVTVIYSNDQRPSDIPSRFSGSKSGSTATLTITGVRAEDEAIYYCGSTDSDYVGIFGAGTTLTVLGQSSRSSGGGGSSGGGGSAVTLDESGGGLQTPGGTLSLVCKASGFDFSSYATIWVRQAPGKGLEWVAGISGTGTGSSTGYAPAVKGRATISRDNGQSTVRLQLNNLRAEDTGSYFCAKSTGYGDSWIYPDSIDAWGHGTEVIVSS
notes: also called MAb AB102; not shown: Fc fragment of human IgG1, cloned in frame with the scFv
